Biological target: His-tagged recombinant Ebola virus glycoprotein (rGP) expressed in insect cells (Ebola virus (EBOV)) (UniProt Q05320)
Assay: ELISA

Row | Substance | GP binding affinity (absorbance normalized by the negative control) (normalized units) | absorbance signal ratio between positive binding samples and blanks | ratio of GP-binding affinity to HA-RBD affinity (GP/HA) | GP binding affinity (absorbance normalized by the negative control)
1 | scFv-13F6 | 9.65 | 13.9 | 4.48 | 
2 | Fab-KZ52 |  | 10.2 | 3.91 | 16.6
3 | scFv-13C6 | 11.1 | 19.1 | 5 | 
